In IntAct's records for PubMed 23260655:

B1: Chromobox protein homolog 8 (Homo sapiens), Q9HC52 (parent)
chain: MELSAVGERVFAAEALLKRRIRKGRMEYLVKWKGWSQKYSTWEPEENILDARLLAAFEEREREMELYGPKKRGPKPKTFLLKAQAKAKAKTYEFRSDSARGIRIPYPGRSPQDLASTSRAREGLRNMGLSPPASSTSTSSTCRAEAPRDRDRDRDRDRERDRERERERERERERERERERGTSRVDDKPSSPGDSSKKRGPKPRKELPDPSQRPLGEPSAGLGEYLKGRKLDDTPSGAGKFPAGHSVIQLARRQDSDLVQCGVTSPSSAEATGKLAVDTFPARVIKHRAAFLEAKGQGALDPNGTRVRHGSGPPSSGGGLYRDMGAQGGRPSLIARIPVARILGDPEEESWSPSLTNLEKVVVTDVTSNFLTVTIKESNTDQGFFKEKR

Variants of: B1
Details: with af9_mouse Mllt3, A2AM29
Sequence of af9_mouse Mllt3, A2AM29 (A2AM29 whole entry): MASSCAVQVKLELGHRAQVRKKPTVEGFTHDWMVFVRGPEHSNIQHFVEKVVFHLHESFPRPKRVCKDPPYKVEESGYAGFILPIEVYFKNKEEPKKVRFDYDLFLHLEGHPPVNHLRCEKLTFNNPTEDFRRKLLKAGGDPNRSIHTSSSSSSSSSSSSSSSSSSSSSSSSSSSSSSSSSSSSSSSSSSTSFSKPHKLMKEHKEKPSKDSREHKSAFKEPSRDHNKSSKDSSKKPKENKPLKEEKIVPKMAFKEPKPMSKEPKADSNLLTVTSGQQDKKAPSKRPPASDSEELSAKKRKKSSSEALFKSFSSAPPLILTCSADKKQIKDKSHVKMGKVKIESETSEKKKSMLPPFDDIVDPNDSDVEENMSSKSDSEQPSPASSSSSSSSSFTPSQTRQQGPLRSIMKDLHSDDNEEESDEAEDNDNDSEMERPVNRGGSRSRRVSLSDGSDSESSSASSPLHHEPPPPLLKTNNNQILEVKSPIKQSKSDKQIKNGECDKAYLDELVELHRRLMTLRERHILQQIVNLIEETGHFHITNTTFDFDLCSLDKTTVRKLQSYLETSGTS

Row | Variant | effect of a mutation on the interaction
1 | A335V | increasing interaction strength
